In the nanobody polyreactivity screen of Harvey et al. (2022):

Assay: yeast display, Sf9 membrane polyspecificity reagent, FACS + sequencing; frameworks hold sequencing errors
How it was run: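 Genes from sorted yeast were amplified by colony PCR, read by MiSeq 2 × 250 sequencing and filtered on CDR length. These cells carried a synthetic nanobody library in Saccharomyces cerevisiae BJ5465 and were sorted by FACS into low and high (top ~1%) gates on anti-HA and streptavidin fluorescence. Polyreactivity is labelled according to the gate of origin.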

| Sequence | polyreactivity (PSR sort gate) |
| --- | --- |
| QVQLVESGGGLVQAGGILRLSCAASGIIYQRNAMGCYRQAPGKERQLVASITAGGDTTYYADSVKGRFTISRDNAKNTVYLQMNSLKPEDTAVYYCAVDSWLDDDDSYPDSILVDYWGQGTQVTVSS | low polyreactivity |
| QVQLVESGGGLVQAGGILRLSCAASGLIFANNAMGWYRQAPGKERELVAAITGGGDGTYYADYVKGRFTISRDNAKNNVYFQMNSLKPEDTAVYYCAADYKYLGSEYCYWGQGTQVTVSS | low polyreactivity |
| QVQLVESGGGLVQAGGILRLSCAASGLIFPPNAMGWYRQAPGKERELVASITRSGGSTYYADSVKGRFTISRDNAKNTVYLQMNSLKPEDTAVYYCAAYLDTSRYGVLYDYWGQGTQVTVSS | low polyreactivity |
| QVQLVESGGGLVQAGGILRLSCAASGNIFESYGMGWYRQAPGKERELVAANSYSGGTTYYADSVKGRFTFSRDNEKNTVYLQMNSLKPEDTAVYYCAARLHHFFTYDYWGQGTQVTVSS | low polyreactivity |
| QVQLVESGGGLVQAGGILRLSCAASGQIFTYYVMGWYRQAPGKERELVAAIDWDSGSTSYADSLKGRFTISRDNAKNTVYLQMNSLKPEDTAVYYCAADEVLSGYYTLDYWGQGTQVTVSS | low polyreactivity |
| QVQLVESGGGLVQAGGILRLSCAASGRIFHWYAMGWYRQAPGKERELVDAITDGYSTYYADSVNGRYKISRDNAKNTVYLQMNSLKPEETAVYYCAADVGYSPYVFGVTRYYKYDYWGQGTQVTVSS | low polyreactivity |
| QVQLVESGGGLVQAGGILRLSCAASGRIFKDNAMGWYRLAPGKERELVATIDSGGDTNYADSVKGRFTISRDNAKNTVYLQMNSLKPEDTAVYYSNTEGFLSAVYAFGYWGQGTQVTVSS | low polyreactivity |
| QVQLVESGGGLVQAGGILRLSCAASGRIFPKYAMGWYRQAPGKERELVAAIRWSGGNTYYADSVKGRFTISRDNAKNTVYLQMNSLKPEDTAVYYCAATPYVSKYYYFGHDYWGQGTQVTVSS | high polyreactivity |
| QVQLVESGGGLVQAGGILRLSCAASGRIFTRYSLGWYRPAPGKESELVAAISSGGSTYYADSVKGRFTISRDNAKNTVYLQMNSLKPEDTAVYYSAAKTRPQRTFSTRQQMNYWGQGTQVTVSS | high polyreactivity |
| QVQLVESGGGLVQAGGILRLSCAASGRIFYYNTMGWYRQAPGKERELVAAITRGGGRTYYADSVKGRFTISRDNAKNTVYLQMNSLKPEDTAVYYCNTRSTLGYYWGQGTQVTVSS | high polyreactivity |
| QVQLVESGGGLVQAGGILRLSCAASGRTFVLNAMGRYRQAPGKERELVAAITSGGSTYYADSVKGRFTISRDNAKNTVYLQMNMLKPEDTAVYYCAVTYKGDSSWPGDYWGQCTQVTVSS | low polyreactivity |
| QVQLVESGGGLVQAGGILRLSCAASGRTFYYYAMGWYRQAPGKERELVAAISWGGGRTYYADSVKGRFTISRDNAKNTVYLHMNSLKPEDTAVYYCDTTAYNGYDYWGQGTQVTVSS | high polyreactivity |
| QVQLVESGGGLVQAGGILRLSCAASGSIFLGNAMGWYRQAPGKERELVAVINSGGDTNYADSVKGRFTISRDNAKNTVYLQMNSLKPEDTAVYYCARRKGKWDSYGGWGQGTQETVSS | low polyreactivity |
| QVQLVESGGGLVQAGGILRLSCAASGSIFPYYAMGWYRQAPGKERELVATITSRGGSTYYADSVKGRFTISRDNAKNTVYLQMNSLKPEDTAVYYCNTLQPYLYDYWGQGTQVTVSS | high polyreactivity |
| QVQLVESGGGLVQAGGILRLSCAASGSIFYRNAMGWYRQAPGKERELVAAISARGGRTNYADSVKGRFTISRDNAKYTVYLQMNSLKPEDTAVYYCNTADSWYHRSQAYDYWGQGTQVTVSS | high polyreactivity |
| QVQLVESGGGLVQAGGILRLSCAASGSTFGRYAIGWYRPAPGTERELVAAISRRGGSTYYADSVKWRFTISRDNAKNNVYLQMYSLKPVDTAVYYCAADDVRTSGCHFDYWGDGTQVTVSS | high polyreactivity |
| QVQLVESGGGLVQAGGILRLSCAASGSTFSSNAMGWYRQAPGKERELVAAISKRGGRTYYADSVKGRFTISRDNAKNTVYLQMNSLKPEDTAVYYCAAEYWVPAWKFGYEYWGQGTQVTVSS | high polyreactivity |
| QVQLVESGGGLVQAGGILRLSCAASGSTFTDSDMGWYRQAPGKERELVAAITSGGSTNYADSVKGRFTISLDNAKYTVYLPMNSLKPEDSAVYYCAAADADRKYDYWGQGTQVTVSS | low polyreactivity |
| QVQLVESGGGLVQAGGILRLSCAASGSTISYNAMGWYRQAPGKERELVAAINYSGGNTNYADSVKGRFTISRDNAKNTVYLQMNSLKPEDTAVYYCAARWWSGYGYWGQGTQVTVSS | high polyreactivity |
| QVQLVESGGGLVQAGGILRLSCASSGNIFDRYAMGWYRQAPGKERELVAGITWSGGSTYYADSVKGRFTISRDNEKNTVYLQMNSLKPEDTAVYYCGQANYYWGQGTQVTVSA | low polyreactivity |
| QVQLVESGGGLVQAGGILRLSCSASGRTLPAYVMGWYRQAPGKERELVAAITSGGGGTYFADSVKGRFTISRDNAKNTVYLQMNSMKPEDTAVYYCATTGNFFHYVYDFDYYYWGQGTQVTLSS | low polyreactivity |
| QVQLVESGGGLVQAGGILRLSSAASGRTILSYAMGWYRQAPGKERELVAAITRSGGGTFYADSVKGRFTLSRDNAKNTVYVQMNSLKPEDTAVYYCAARYYNYASPTRFKYNYWGQGTQVTVSS | high polyreactivity |

| Sequence | polyreactivity (PSR sort gate) |
| --- | --- |
| QVQLVESGGGLVQAGGILSLSCAASGFIFLYNMGWYRQAPGKEWQLVADISTGVSTNYADSVKGRFTISRDNAKNSVYLQMNSLKPEDTAVYYCAAVYYNGYQYEPWYDYWGQGTQVTVSS | low polyreactivity |
| QVQLVESGGGLVQAGGPLRLSCAASGRIFWPYTMGWYRQTPGKERELVAVITYSGGSTYYADSVKGRFTISRDNAKNTVYFQMNSLKPEDTAVYYCNAGIRFYLHAHGYYWGQGTQVTVSS | high polyreactivity |
| QVQLVESGGGLVQAGGRHRLSCAASGSTLTRNTMGWYRQAPGIQRELVATITRSGGSTYYADSVKGRFTISRDNAKNTVYLQMNSLKPEDTAVYYCAVRRQTFRYVYPGMDYWGQGTQETVSS | high polyreactivity |
| QVQLVESGGGLVQAGGRHRLTCAASGRILGYYAMGWYRQAPGKQRELVAAITRGGTTNYADSVKGRFTISRDNAMNTVYLQKNSQKPEDSAGYYCAADLARYGKRYDFWGQGTQVTLSS | low polyreactivity |
| QVQLVESGGGLVQAGGRLLLSCAASGFIFYSNAMGWYRQAPGKERELVAAISRSGGSTYYADSVKGRFTISRDNAMNTVFLQMNSLKPEDTAVYYCNADYVYRRYGYWGQGTQVNVSS | high polyreactivity |
| QVQLVESGGGLVQAGGRLLLSCAASGFTFPRYVMGWYRQAPGKEREFVAAITFSGGSTYYADSVKGRFTISRDNAKNSVYLQMNSLKPEDTAVYYCAAGASLWRLGLKMGYWGQGTQVTVSS | low polyreactivity |
| QVQLVESGGGLVQAGGRLRFSCAASGFIFRYYAMGCYRQAPGKERELVAAIDYSGGSTNYADSVKGRFTISRDNAKNTVYLQMNSLKPEETAVYYCNAEYTWHRGYDYWGQGTLVTVSS | low polyreactivity |
| QVQLVESGGGLVQAGGRLRFSCAASGSIFEYYTMGWYRQAPGKERELVAAISDGGSTYYADSVKGRFTISRDNAKNTVYLQMNSLKPDDTAFYYCAAEYQQDFWVAVDYWGQGTQLTVSS | low polyreactivity |
| QVQLVESGGGLVQAGGRLRIICAASGYIFRFNAMGWYRQAPGKERELVAVITKSGGSTYYADSVKGRFTISRDNAKNTVYLQMNRLKPEDSAVYYCNADRFYIDYTNTYDSIRDYWGQGTQVTVSS | low polyreactivity |
| QVQLVESGGGLVQAGGRLRISCAASGRTFQVYTIGWYRQAPGKERELVAAITWNGGRSRYADSVKGRFTISRDNAKNTVYLQMNRLKPEDTAVYYCNAGSTELGWTWELDYWGQGTQVTVSS | high polyreactivity |
| QVQLVESGGGLVQAGGRLRISCAASGRTFSHNTMGWYRQAPGKERELVAAITGSGASTYYADSVKGRFTISRDNAKNTVYLQMNSLKPEDTAVDYCAKVSRQSWDEYDTWGQGTQVTVSS | low polyreactivity |
| QVQLVESGGGLVQAGGRLRISCAASGSTFKANAMGWYRQSPGKERELVASIRFSAGSTYYADSVKGRFTISRDTAKNTVYLEMNRLKPEDTAVYYCAAGRHVLKRRYDYWGQGTQVTVSS | low polyreactivity |
| QVQLVESGGGLVQAGGRLRISCAASGTIFYSYEMVWYRKAPAKERELVAAITQSGSSTYYADSVKGRFTISRDNAKNTVYLQMNSLKPEDTAVYYCAAVSRRHPTMSDYWGQGTQVTVSS | high polyreactivity |
| QVQLVESGGGLVQAGGRLRLRCAASGHIFYYYTLGWYRQAPGKERELVAGITIGGSTNYADSVKGRFTISRDNAKNTVYLQMNSLKPEDTAVYYCNVVKYVYIYSYWEYYYWGQGTQVTVSS | low polyreactivity |
| QVQLVESGGGLVQAGGRLRLRCAASGSIFEPNAMGWYRQSPWKERELVATIRDSGGRTYYADSVKGRFTISRDNAKNTVYLQMNSLKPEDTAVYYCAARRYLGWFSYRLYDYWGQGTQVTVSS | high polyreactivity |
| QVQLVESGGGLVQAGGRLRLRCAASGSIFYAYDRGWYRQAPGKERELVAAINWSGDSTYYADSVKGRFTISRDNAKNTVDLQMNSLKPEDTALYYCAAVSGSGDSGEYDYWGQGTQVTVSS | low polyreactivity |
| QVQLVESGGGLVQAGGRLRLSCAASGFIFTEYAMGWYRQSPGKERELVAAINSGGRTKYADSVKGRFTISRDNAKNTVFLQMNSLKPEDTAVYYCAARRFPTYDYWGQGTQVTVSS | high polyreactivity |
| QVQLVESGGGLVQAGGRLRLSCAASGFTFKKNAMGWYRQAPGKERELVAAIRSGTSTKYADSVKGRFTISRDNAKNTVYLQMNSLKPEDTAVYYCAAEEPEYLATWRNRRYDYWGQGTQVTVSS | low polyreactivity |
| QVQLVESGGGLVQAGGRLRLSCAASGFTFTNYAMGRYRQAPGKERELVAAISWNGGSTYYADSVKGRFTISRDNAKNTVYLQMNSLKPEDTAVYYCNAYDYQYFYGYEYDYWGQGTQVTVSS | high polyreactivity |
| QVQLVESGGGLVQAGGRLRLSCAASGFTFTPYAMGWYRQAPGTERELVAAISWGDGSTYYADSVKGRFTISRDNAKNTVYLQMNSLKPEDTAVYYCAAYRGPRIYRYDYWGQGTQVTVSS | high polyreactivity |
| QVQLVESGGGLVQAGGRLRLSCAASGFTFYRYAMGWYRQAPGKERELVAAITDSGDSTYYADSVKGRFTISRDNAKNTVYLQMNSVKPEDTAVYYCNTLVDLDGFEYYYWGQGTQVTVSS | high polyreactivity |
